In article PMC4188415:

Columns and labels:
Assay in all cases: ITC
[1] = molecular target: KPNA1 in a 1:1 complex with eVP24 (human | Ebola virus) (UniProt P52294)
[2] = molecular target: KPNA5 in a 1:1 complex with eVP24 (competition ITC) (human | Ebola virus) (UniProt O15131)
[3] = molecular target: ΔIBB-KPNA5 (66-509) (human)

Sequence of UniProt O15131 (O15131 whole entry, chain 1 of 2): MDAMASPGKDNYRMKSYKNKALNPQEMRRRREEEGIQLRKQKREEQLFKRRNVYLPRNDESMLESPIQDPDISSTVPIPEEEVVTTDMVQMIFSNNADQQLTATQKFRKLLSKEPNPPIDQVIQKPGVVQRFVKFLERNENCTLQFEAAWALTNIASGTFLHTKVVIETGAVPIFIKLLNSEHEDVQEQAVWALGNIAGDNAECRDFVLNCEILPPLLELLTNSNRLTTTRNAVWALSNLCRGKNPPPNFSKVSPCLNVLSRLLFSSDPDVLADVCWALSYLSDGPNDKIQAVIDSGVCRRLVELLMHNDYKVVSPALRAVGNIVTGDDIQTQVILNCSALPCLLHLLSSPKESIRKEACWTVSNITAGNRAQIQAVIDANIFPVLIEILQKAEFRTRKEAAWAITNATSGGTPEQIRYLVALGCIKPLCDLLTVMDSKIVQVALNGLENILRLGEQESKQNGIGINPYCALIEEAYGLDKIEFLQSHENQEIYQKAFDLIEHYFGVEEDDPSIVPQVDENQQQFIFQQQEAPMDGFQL
Sequence of UniProt O15131 (Q05322 whole entry, chain 2 of 2, further chain): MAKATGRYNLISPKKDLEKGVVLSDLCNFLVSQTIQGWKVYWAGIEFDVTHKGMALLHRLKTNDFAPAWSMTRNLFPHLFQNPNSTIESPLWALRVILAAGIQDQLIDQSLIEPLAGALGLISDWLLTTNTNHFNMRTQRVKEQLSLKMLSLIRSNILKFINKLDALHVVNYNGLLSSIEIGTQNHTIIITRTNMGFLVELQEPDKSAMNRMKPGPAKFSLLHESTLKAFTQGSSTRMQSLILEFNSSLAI
Sequence of UniProt P52294 (P52294 whole entry, chain 1 of 2): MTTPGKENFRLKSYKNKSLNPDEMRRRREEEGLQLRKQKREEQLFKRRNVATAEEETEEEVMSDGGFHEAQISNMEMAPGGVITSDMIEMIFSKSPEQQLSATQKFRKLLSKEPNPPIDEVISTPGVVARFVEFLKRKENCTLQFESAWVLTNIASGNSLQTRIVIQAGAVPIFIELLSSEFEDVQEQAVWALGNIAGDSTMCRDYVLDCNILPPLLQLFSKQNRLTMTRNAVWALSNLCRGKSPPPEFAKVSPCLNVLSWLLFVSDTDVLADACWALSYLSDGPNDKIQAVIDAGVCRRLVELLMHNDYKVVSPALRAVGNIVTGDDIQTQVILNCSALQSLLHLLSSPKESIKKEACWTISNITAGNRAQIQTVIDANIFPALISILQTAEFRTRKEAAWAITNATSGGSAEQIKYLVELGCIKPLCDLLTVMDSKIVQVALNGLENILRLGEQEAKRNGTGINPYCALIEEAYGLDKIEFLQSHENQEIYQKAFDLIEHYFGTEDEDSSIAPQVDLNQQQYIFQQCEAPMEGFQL
Sequence of UniProt P52294 (Q05322 whole entry, chain 2 of 2, further chain): as the sequence (Q05322 whole entry, chain 2 of 2, further chain) above

Q: nucleoplasmin peptide (bipartite cNLS) was tested. Which fold difference in binding against KPNA1 without eVP24 [1] did it give?
A: 2 fold

Q: What about the fold difference in binding against KPNA5 without eVP24 [2] of the same substance?
A: 2 fold

Q: With “MBP-tagged eVP24 (residues 11-237) (from UniProt Q05322 11-237) (domain or fragment)” as the substance, how does the Kd [3] read?
A: 1 to 10 nM
